From patent US20080160574A1 (KOREA ADVANCED INSTITUTE OF SCIENCE AND TECHNOLOGY KAIST, published 2008) come the findings set out here.

The Kd is the free concentration of one partner at which half of the binding sites on the other are occupied at equilibrium, for simple one-to-one binding. A high value points to a looser complex.

Sequences and labels used below:
B1: COMP/CC-Ang1/FD (coiled-coil domain of COMP - fibrinogen domain of Ang1) (ligand)
chain: DYKDDDDKGILDLAPQMLRELQETNAALQDVRELLRQQVKEITFLKNTVMECDACGGSLVNLCTKEGVLLKGGKREEEKPFRDCADVYQAGFNKSGIYTIYINNMPEPKKVFCNMDVNGGGWTVIQHREDGSLDFQRGWKEYKMGFGNPSGEYWLGNEFIFAIYSQRQYMLRIELMDWEGNRAYSQYDRFHIGNEKQNYRLYLKGHTGTAGKQSSLILHGADFSTKDADNDNCMCKCALMLTGGWWFDACGPSNLNGMFYTAGQNHGKLNGIKWHYFKGPSYSLRSTTMMIRPLDF
notes: The end, 312, is worked out from the stated lengths: 16 signal + 8 FLAG + 3 + 45 COMP + 2 + 238 Ang1 Leu261-498; ~180 kDa and ~250 kDa were observed under non-reducing conditions; also called COMP-Ang1/FD; CO/CC-A1/FD
B2: native Ang1 (recombinant FLAG-tagged human angiopoietin-1 with C-terminal Myc and His tags) (ligand)
chain: DYKDDDDKLRYNRIQHGQCAYTFILPEHDGNCRESTTDQYNTNALQRDAPHVEPDFSSQKLQHLEHVMENYTQWLQKLENYIVENMKSEMAQIQQNAVQNHTATMLEIGTSLLSQTAEQTRKLTDVETQVLNQTSRLEIQLLENSLSTYKLEKQLLQQTNEILKIHEKNSLLEHKILEMEGKHKEELDTLKEEKENLQGLVTRQTYIIQELEKQLNRATTNNSVLQKQQLELMDTVHNLVNLCTKEGVLLKGGKREEEKPFRDCADVYQAGFNKSGIYTIYINNMPEPKKVFCNMDVNGGGWTVIQHREDGSLDFQRGWKEYKMGFGNPSGEYWLGNEFIFAITSQRQYMLRIELMDWEGNRAYSQYDRFHIGNEKQNYRLYLKGHTGTAGKQSSLILHGADFSTKDADNDNCMCKCALMLTGGWWFDACGPSNLNGMFYTAGQNHGKLNGIKWHYFKGPSYSLRSTTMMIRPLDFDIQHSGGRSSLEGPRFEQKLISEEDLNMHTGHHHHHH
notes: Multimer of variable sizes under non-reducing conditions; Produced in COS-7 cells; also called nAng1
B3: GCN4/CC-Ang1/FD (coiled-coil domain of GCN4 - fibrinogen domain of Ang1) (ligand)
chain: DYKDDDDKGILMKQLEDKVEELLSKNYHLENEVARLKKLVGEGSLVNLCTKEGVLLKGGKREEEKPFRDCADVYQAGFNKSGIYTIYINNMPEPKKVFCNMDVNGGGWTVIQHREDGSLDFQRGWKEYKMGFGNPSGEYWLGNEFIFAIYSQRQYMLRIELMDWEGNRAYSQYDRFHIGNEKQNYRLYLKGHTGYAGKQSSLILHGADFSTKDADNDNCMCKCALMLTGGWWFDACGPSNLNGMFYTAGQNHGKLNGIKWHYFKGPSYSLRSTTMMIRPLDF
notes: The end, 298, is worked out from bases 1-897 including the stop codon; ~80 kDa under non-reducing conditions; also called GCN4-Ang1/FD; G/CC-A1/FD
B4: CMP/CC-Ang1/FD (coiled-coil domain of CMP - fibrinogen domain of Ang1) (ligand)
chain: YKDDDDKGILDEDPCECKSIVKFQTKVEELINTLQQKLEAVAKRIEALENKIIGSLVNLCTKEGVLLKGGKREEEKPFRDCADVYQAGFNKSGIYTIYINNMPEPKKVFCNMDVNGGGWTVIQHREDGSLDFQRGWKEYKMGFGNPSGEYWLGNEFIFAIYSQRQYMLRIELMDWEGNRAYSQYDRFHIGNEKQNYRLYLKGHTGTAGKQSSLILHGADFSTKDADNDNCMCKCALMLTGGWWFDACGPSNLNGMFYTAGQNHGKLNGIKWHYFKGPSYSLRSTTMMIRPLDF
notes: The end, 310, is worked out from bases 1-933 including the stop codon; ~140 kDa and ~180 kDa were observed under non-reducing conditions; also called CMP-Ang1/FD; C/CC-A1/FD
B5: Ang1/FD (truncated Ang1 that contains only the fibrinogen-like domain, amino acids 284-498) (ligand)
chain: RDCADVYQAGFNKSGIYTIYINNMPEPKKVFCNMDVNGGGWTVIQHREDGSLDFQRGWKEYKMGFGNPSGEYWLGNEFIFAIYSQRQYMLRIELMWEGNRAYSQYDRFHIGNEKQNYRLYLKGHTGYAGKQSSLILHGADFSTKDADNDNCMCKCALMLTGGWWFDACGPSNLNGMFYTAGQNHGKLNGIKWHYFKGPSYSLRSTTMMIRPLDF
notes: The range 284-498 is counted on Ang1, not on the entry; also called monomeric Ang1/FD; recombinant Ang1/FD

T1 sequence (Q02763 23-748 limits assumed): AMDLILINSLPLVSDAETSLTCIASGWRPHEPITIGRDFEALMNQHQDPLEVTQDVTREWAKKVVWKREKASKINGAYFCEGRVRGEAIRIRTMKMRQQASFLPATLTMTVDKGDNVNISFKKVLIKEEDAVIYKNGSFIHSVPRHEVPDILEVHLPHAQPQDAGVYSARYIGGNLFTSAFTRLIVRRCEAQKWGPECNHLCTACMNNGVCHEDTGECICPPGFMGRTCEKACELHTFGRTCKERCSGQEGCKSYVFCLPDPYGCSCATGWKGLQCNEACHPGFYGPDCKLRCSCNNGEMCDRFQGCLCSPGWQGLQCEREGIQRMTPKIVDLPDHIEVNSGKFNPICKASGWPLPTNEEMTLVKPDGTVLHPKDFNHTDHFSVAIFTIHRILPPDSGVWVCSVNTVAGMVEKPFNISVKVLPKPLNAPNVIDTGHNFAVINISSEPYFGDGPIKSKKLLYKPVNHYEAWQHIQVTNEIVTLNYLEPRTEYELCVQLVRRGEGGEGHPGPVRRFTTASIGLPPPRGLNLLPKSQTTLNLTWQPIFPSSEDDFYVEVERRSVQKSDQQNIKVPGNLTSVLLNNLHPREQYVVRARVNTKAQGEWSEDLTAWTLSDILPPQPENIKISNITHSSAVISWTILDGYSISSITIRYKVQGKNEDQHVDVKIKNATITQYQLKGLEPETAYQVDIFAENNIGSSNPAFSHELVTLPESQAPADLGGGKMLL

The first test concerns the target T1, soluble Tie2-Fc (fusion of the ectodomain of Tie-2 receptor and the Fc domain of human IgG1, R&D Inc) (human, UniProt Q02763 23-748).
T1 construct: Bought (R&D Inc) for the Biacore assay; human Tie2 would be UniProt Q02763; also called sTie2-Fc; T2; not shown: Fc domain of human IgG1 and any linker
Kind of test: Biacore, Tie2-Fc immobilized on CM5 chip. As to the method:
(§1) FIGS. 10A-10D show in vitro binding assay between recombinant native Ang1, GCN4-Ang1/FD, CMP-Ang1/FD, or COMP-Ang1/FD and immobilized soluble Tie2-Fc using Biacore assay. Each recombinant protein was passed over a Biacore sensor chip that had extracellular domain of Tie2-Fc and Fc protein covalently coupled to it, followed by dissembling in absence of the recombinant proteins. Concentrations of the recombinant proteins are shown in each panel. Specificity of binding was assessed by subtracting Fc protein binding value from Tie2-Fc binding value during the measurement. Binding of the sensor chip is provided in resonance units (RUs).
(§2) Alternatively, to determine whether the COS-7 cell-derived recombinant proteins of native Ang1, GCN4/CC-Ang1/FD, CMP/CC-Ang1/FD and COMP/CC-Ang1/FD could bind to Tie-2 receptor, standard Biacore analysis was performed by BIA2000 (BIAcore, Inc.). Briefly, 600 ng of Tie-2-Fc receptor protein (R&D Inc), which is a fusion protein composed of the ectodomain of Tie-2 receptor and Fc domain of human IgG1, was immobilized on a Biacore chip (Sensor Chip CM5). As a control, 600 ng of Fc protein, which had only the Fc domain of human IgG1, was also immobilized on the same chip. The binding affinity was obtained by subtracting the response value using Fc protein from the values obtained using the Tie-2-Fc protein.
B1: the “concentration at which binding was saturated” value (“concentration” below) is greater than 125 nM.
As to B2, the “concentration” value is greater than 125 nM.
Same read-out and setting: with B3 the figure was roughly 30 nM.
B4: the “concentration” value was roughly 30 nM.

In a further test the target is T1, soluble Tie2-Fc (fusion of the …). The test can be described thus: protein-A pull-down with sTie2-Fc, anti-FLAG Western blot. Here is the method: Twenty nanograms of each protein was incubated with 100 ng of sTie1-Fc or sTie2-Fc for […], and then, protein-A conjugated agarose beads were added. The precipitate was separated by 10% SDS-PAGE, and electro-blotted on to nitrocellulose membranes. The nitrocellulose membranes were Western blotted with anti-FLAG M1 antibody, washed, and incubated with horseradish peroxidase-conjugated secondary antibody. Signals were visualized by chemiluminescent detection according to the manufacturer's protocol (Amersham Pharmacia Biotech) and chemiluminescence scanner (LAS-1000, Fuji Film, Tokyo). CB, control buffer; PC, positive control of same amount of each recombinant protein without binding.
Twenty nanograms of each recombinant chimeric-Ang1 protein and 100 ng of soluble Tie1-Fc or soluble Tie2-Fc were incubated in 500 μl Tris-buffer solution (50 mM Tris, 100 mM NaCl, pH 7.4) containing 0.02% TritonX-100 at 4° C. for 2 hr. Then, 20 μl of protein-A agarose beads (Oncogene) was added and incubated for another 1 hr at 4° C. The protein-A conjugated samples were washed twice with 1 ml of Tris-buffer containing 0.02% TritonX-100. The samples were eluted with sample buffer, and heat-denatured. The samples were further separated by 10% SDS-PAGE, and electro-blotted on to nitrocellulose membranes, and Western blotted with anti-FLAG M1 antibody to detect the bound recombinant chimeric-Ang1, and further washed and incubated with horseradish peroxidase-conjugated secondary antibody. Signal was visualized by chemiluminescent detection according to the manufacturer's protocol (Amersham Pharmacia Biotech) using chemiluminescence scanner (LAS-1000, Fuji Film, Tokyo). Approximately 75%, 20%, 95% or 100% of native Ang1, GCN4-Ang1/FD, CMP-Ang1/FD, and COMP-Ang1/FD, respectively, bound to sTie2-Fc. In contrast, none of them bound to sTie1-Fc.
In the case of B1, the “percent of input protein bound” value is roughly 100%.
Same read-out and setting: in the case of B2 it was roughly 75%; in that of B3, roughly 20%; in that of B4, roughly 95%.

For a further test the target is unchanged. The test can be described thus: binding assay with soluble Tie2 (details not given).
Regarding B5, the binding result was “no binding”.

A further test deals with Tie2 receptor on human umbilical vein endothelial cells (HUVECs) (human, UniProt Q02763 23-1124). The test can be described thus: cell-based or functional assay.
Chain of Tie2 receptor on human umbilical vein endothelial cells (HUVECs) (Q02763 23-1124): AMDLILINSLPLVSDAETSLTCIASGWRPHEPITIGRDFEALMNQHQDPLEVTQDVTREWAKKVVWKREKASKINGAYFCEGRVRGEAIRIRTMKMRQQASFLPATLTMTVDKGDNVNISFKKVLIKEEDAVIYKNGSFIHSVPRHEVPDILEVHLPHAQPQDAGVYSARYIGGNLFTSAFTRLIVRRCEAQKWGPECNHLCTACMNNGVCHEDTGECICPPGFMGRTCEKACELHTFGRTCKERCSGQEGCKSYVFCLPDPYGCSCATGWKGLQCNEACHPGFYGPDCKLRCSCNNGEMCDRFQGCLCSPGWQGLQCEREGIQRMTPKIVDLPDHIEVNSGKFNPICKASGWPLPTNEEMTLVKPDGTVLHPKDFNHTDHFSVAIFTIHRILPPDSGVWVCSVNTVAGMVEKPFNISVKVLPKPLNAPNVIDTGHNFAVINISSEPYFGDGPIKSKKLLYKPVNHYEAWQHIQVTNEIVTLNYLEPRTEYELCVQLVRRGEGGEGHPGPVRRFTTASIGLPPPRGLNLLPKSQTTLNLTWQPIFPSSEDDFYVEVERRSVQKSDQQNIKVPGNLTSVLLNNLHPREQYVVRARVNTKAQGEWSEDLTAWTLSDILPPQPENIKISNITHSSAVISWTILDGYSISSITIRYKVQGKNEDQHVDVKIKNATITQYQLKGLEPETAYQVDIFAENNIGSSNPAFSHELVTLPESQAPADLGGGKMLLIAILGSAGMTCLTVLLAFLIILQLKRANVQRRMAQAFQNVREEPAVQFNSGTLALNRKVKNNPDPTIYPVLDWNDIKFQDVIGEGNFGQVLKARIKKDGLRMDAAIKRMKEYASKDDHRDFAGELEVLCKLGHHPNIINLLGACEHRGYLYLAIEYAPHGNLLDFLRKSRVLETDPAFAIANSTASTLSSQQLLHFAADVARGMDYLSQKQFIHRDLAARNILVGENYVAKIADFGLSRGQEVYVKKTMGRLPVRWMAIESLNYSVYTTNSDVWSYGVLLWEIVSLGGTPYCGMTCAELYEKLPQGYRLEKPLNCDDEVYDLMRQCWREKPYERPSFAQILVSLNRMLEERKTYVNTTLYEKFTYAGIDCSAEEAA
In the case of B1, the “Tie2 phosphorylation (ratio of phospho-Tie2 to Tie2, control buffer = 1)” value was roughly 8.8 fold.
For B2, the “Tie2 phosphorylation (ratio of phospho-Tie2 to Tie2, control buffer = 1)” value is roughly 3.6 fold.
Same read-out and setting: in the case of B4 it was roughly 4 fold.

The target in a further test is T1, soluble Tie2-Fc (fusion of the …). The test can be described thus: Biacore, Tie2-Fc immobilized on CM5 chip, Fc reference subtracted. Here is the method:
as §1, §2
(In general: In SPR one partner is held on a chip, and binding of the other changes the refractive index at the surface.)
For B1, the Kd is 20.5 nM.
For the molecule B2, the dissociation constant (Kd) was 7.5 nM.
Same read-out and setting: with B3 the figure was 158 nM; with B4, 67 nM.
